Our source for the stoichiometry N values is paper PMC8922439.

Experiment [1] has as its target mRNA-expressed CH848 10.17DT SOSIPv4.1 trimer (HIV-1 (CH848 10.17)). The experiment can be described thus: SEC.
The target in experiment [2] is mRNA-expressed CH848 10.17DT DS SOSIP trimer (HIV-1 (CH848 10.17)). Nature of the experiment: SEC.

For orientation: stoichiometry N means the number of molecules, sites or subunits per partner or assembly.

Substance “mRNA-expressed CH848 10.17DT SOSIPv4.1 trimer (domain or fragment)” had a stoichiometry N in experiment [1] of 3.

As for “mRNA-expressed CH848 10.17DT DS SOSIP trimer (domain or fragment)”, in experiment [2], the stoichiometry N turned out to be 3.
